Literature values in paper PMC6191488.

Target: IgE Fc (Homo sapiens) (UniProt P01854)
UniProt P01854, sequence (P01854 104-427): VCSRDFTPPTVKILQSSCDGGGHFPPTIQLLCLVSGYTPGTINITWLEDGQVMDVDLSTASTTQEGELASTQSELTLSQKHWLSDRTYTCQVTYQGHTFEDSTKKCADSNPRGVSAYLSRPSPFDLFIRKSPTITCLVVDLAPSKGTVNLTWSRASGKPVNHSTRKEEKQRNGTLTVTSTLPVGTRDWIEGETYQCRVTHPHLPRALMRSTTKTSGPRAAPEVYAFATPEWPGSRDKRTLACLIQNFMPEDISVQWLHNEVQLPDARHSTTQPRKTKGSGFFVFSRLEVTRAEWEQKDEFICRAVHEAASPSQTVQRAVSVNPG

Kd: 0.37 nM
Substance: FcεRI alpha chain ECD (from UniProt P12319)
